Assay results as given in article PMC12316933.

Target: KS17 N2 NA (recombinant N2 neuraminidase head of H3N2 A/Kansas/14/2017) (Influenza A virus H3N2 A/Kansas/14/2017)
Test: cryo-EM structure

Work on “KS17 N2 NA (recombinant N2 neuraminidase head of H3N2 A/Kansas/14/2017) (enzyme)” yielded a stoichiometry N of 4.
